The source of these data is the nanobody polyreactivity screen of Harvey et al. (2022).

A short description of this data set: yeast display, Sf9 membrane polyspecificity reagent, FACS + sequencing; frameworks hold sequencing errors. The procedure, abridged:
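In a synthetic yeast display library (Saccharomyces cerevisiae BJ5465), nanobody expression was induced with galactose for 36–48 hours. FACS gates were set low and high (top ~1%) using anti-HA fluorescence for expression and streptavidin fluorescence for binding of the Sf9 membrane reagent. Each polyreactivity label is drawn from the gate of origin.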
For “QVQLVESGGGLVQAGGSLRLSCAASGLIFGGNAMGWYRQAPGKERELVAAISRTGGRTYYADSVKGRFTISRDNAKNTVFLQMNSLKPEDTAVYYCNAATSYYTYTYGYWGQGTQVTVSS”, the “polyreactivity (PSR sort gate)” value is reported as “high polyreactivity”. With “QVQLVESGGGLVQAGGSLRLSCAASGLIFGRYAMGWYRQAPGKERELVAAISSSGVRTYYADSVKGRFTISRDNAKNTVYLQMNSLKPEDTAVSYCAAAYWSSREDTVIKSYYWGQGTQVTVSS”, the “polyreactivity (PSR sort gate)” value is given as “high polyreactivity”. As for “QVQLVESGGGLVQAGGSLRLSCAASGLIFGRYAMGWYRQAPGKERELVAAISSSGVRTYYADSVKGRFTISRDNAKNTVYLQMNSLKPEDTAVYYCAAAYWSSREDTVIKRYYWGQGTQVTVSS”, the “polyreactivity (PSR sort gate)” value is recorded as “high polyreactivity”. In the case of “QVQLVESGGGLVQAGGSLRLSCAASGLIFGTYAMGWYRQAPGKERELVATINSSGGSTYYADSVKGRFTISRDNAKNTVYLQMNSLKPEDTAVYYCNTRRYDAYYDYDYWGQGTQVTVSS”, the “polyreactivity (PSR sort gate)” value is “low polyreactivity”. As for “QVQLVESGGGLVQAGGSLRLSCAASGLIFGVNAMGWYRQAPGKERELVAAISWSGSSTNYADSVKGRFTISRDNAKNTVYLQMNSLKPEDTAVYYCATDQGYRYLKIYVYGDAFDYWGQGTQVTVSS”, the “polyreactivity (PSR sort gate)” value is given as “low polyreactivity”. As for “QVQLVESGGGLVQAGGSLRLSCAASGLIFGVNDMGWYRQAPGKERELVAAITSRGGSTYYADSVKGRFTISRDNAKNTVYLQMNSLKPEDTAVYYCAAKYAYYEPYSWRPQRTYNYWGQGTQVTVSS”, the “polyreactivity (PSR sort gate)” value is given as “high polyreactivity”.

Take “QVQLVESGGGLVQAGGSLRLSCAASGLIFGWNAMGWYRQAPGKERELVAAISSGGSTNYADSVKGRFTISRDNAKNTVYLQMNRLKPEDNAVYYCATRNGYSGTYGYWGQGTQVTVSS”: the “polyreactivity (PSR sort gate)” value is given as “low polyreactivity”. For “QVQLVESGGGLVQAGGSLRLSCAASGLIFHQYAMGWYRQAPGKERELVAAITRSGTRTYYADSVKGRFTISRDNAKNTVYLQMNSLKPEDTAVYYCNKALRTYPLFYYWGQGTQVTVSS” the value was “high polyreactivity”. With “QVQLVESGGGLVQAGGSLRLSCAASGLIFIHNTMRWYRQAPGKERELVAAISWSGASTYYADSVKGRFTISRDNAKNTVYLQMNSLKPEDTAVYYCNAGYRYSIYDYWGQGTQVTVSS”, the “polyreactivity (PSR sort gate)” value was “low polyreactivity”. For “QVQLVESGGGLVQAGGSLRLSCAASGLIFISYAMGWYRQAPGKERELVAAITRSAGTTYYADSVKGRFTISRDNAKNTVYLQMNSLKPEDTAVYYCNALYPITPEDYWGQGTQVTVSS”, the “polyreactivity (PSR sort gate)” value is “low polyreactivity”. With “QVQLVESGGGLVQAGGSLRLSCAASGLIFKRYGMGWYRQAPGKERELVAAISRSGGNTYYADSVKGRFTISRDNAKNTVYLQMNSLKPEDTAVYYCAATATYTYSDVDYWGQGTQVTVSS”, the “polyreactivity (PSR sort gate)” value is recorded as “high polyreactivity”. With “QVQLVESGGGLVQAGGSLRLSCAASGLIFKSNAMGWYRPAPGKERELVAAITRTGGSTYYADSVKGRFTISRDNAKNTVYLQMNSLKPEDTAVYYCAKVVGRWRSSWELDYWGQGTQVTVSS”, the “polyreactivity (PSR sort gate)” value is “high polyreactivity”. Consider “QVQLVESGGGLVQAGGSLRLSCAASGLIFKTYAIGWYRLAPGNERELVAAISWSGGGNTYYADSVKGRFTISRDNAKNTVYLQMNSLKPEDTAVYYCNAPRFVSYDYWGQGTQVTVSS”, for which the “polyreactivity (PSR sort gate)” value is on record as “high polyreactivity”. “QVQLVESGGGLVQAGGSLRLSCAASGLIFKVYAMGWYRQAPGKERELVAAITYSGGSTDYADSVKGRFTISRDNAKNTVYLQMNSLKPEDTAVYYCNVEKVGHVNSYGYDYWGQGTQVTVSS”: the “polyreactivity (PSR sort gate)” value was “low polyreactivity”. Take “QVQLVESGGGLVQAGGSLRLSCAASGLIFKYKAMGWYRQAPGKERELVAAISTSGGSTYYADSVKGRFTISRDNAKNTVYLQMNSLKPEDTAVYYCNAVAGRPFRYYYWGQGTQVTVSS”: the “polyreactivity (PSR sort gate)” value is given as “high polyreactivity”. With “QVQLVESGGGLVQAGGSLRLSCAASGLIFKYNAMGWYRQAPGKERELVADINRSGGSTYYADSVKGRFTISRDNAKNTVYLQMNSLKPEDTAVYYCAAERVSLYWVIFGYWGQGTQVTVSS” the entry was “low polyreactivity”; with “QVQLVESGGGLVQAGGSLRLSCAASGLIFKYYAMGWYREAPGKERELVATITRGGGSTYYADSVKGRFTISRDNAKNTVYLQMNSLKPEDTAVYYCAADYWYVYPRYNPGDYWGQGTQVTVSS”, “high polyreactivity”.

For “QVQLVESGGGLVQAGGSLRLSCAASGLIFLDYAMGWNRQAPWKERELVAAITGRGGSTYYADSVKGRFTISRDNAKNTVYLQMNSLKPDDTAVYDCAAQYSYPTPYRTYEYDYWGQGTQVTVSS”, the “polyreactivity (PSR sort gate)” value is on record as “high polyreactivity”. For the sequence “QVQLVESGGGLVQAGGSLRLSCAASGLIFLEYAMGWYRQAPGKERELLAAISTSGGSTYYADSVKGRFTISRDNAKNTVYLQMNSLKPEDTAVYYCAAEPVYNYYFHDGDYWGQGTQVTVSS”, the “polyreactivity (PSR sort gate)” value is “low polyreactivity”.

On to “QVQLVESGGGLVQAGGSLRLSCAASGLIFLPYAMGWYRQAPGKERELVAAIRWSDDSTYYADSVKGRFTILRDNAKNTVYFQMNCLKPEDTAVYYCNAYVYRPSYIFNYYYEYDYWGQGTQVTVSS”, for which the “polyreactivity (PSR sort gate)” value is reported as “high polyreactivity”. Take “QVQLVESGGGLVQAGGSLRLSCAASGLIFLYYAMGWYRQAPGKERELVAAISRRGGSTYYADSVKGRFTISRDNAKNTVYLQMNSLKPEDTAVYYCAAKYESYPGGIWTYYYWGQGTQVTVSS”: the “polyreactivity (PSR sort gate)” value is reported as “high polyreactivity”. “QVQLVESGGGLVQAGGSLRLSCAASGLIFNLYAIGWNRQAPGKEREFVATITGIGGSTYYADSVKGRFTISRDNAMNTVYFQMNSLKPEDTAVYYCAADAWFLPYNYWGQGTQVTVSS”: the “polyreactivity (PSR sort gate)” value was “low polyreactivity”.

Take “QVQLVESGGGLVQAGGSLRLSCAASGLIFNLYAMGWYRQAPGKEREFVATITGIGGSTYYADSVKGRFTISRDNANNTVYLQMTSLKPEDTAVYYCAADAWFLPYNYWGQGTQVTVSS”: the “polyreactivity (PSR sort gate)” value is on record as “low polyreactivity”. With “QVQLVESGGGLVQAGGSLRLSCAASGLIFPFYTMGWYRQAPGKERELVAAISYSGGSTYYADSVKGRFAISRDNAKNTVYLQMNSLKPEDTAVYYCAKSYRTTYHFWSGYDYWGQGTQVTVSS” the entry was “low polyreactivity”. With “QVQLVESGGGLVQAGGSLRLSCAASGLIFPKNAMGWYRQAPGKERELVAAISSSDSSTYADSVKGRFTISRDNAKNTVYLQMNSLKPEDTAVYYCAAASYNWLDWVTREYWGQGTQVTVSS” the entry was “low polyreactivity”; with “QVQLVESGGGLVQAGGSLRLSCAASGLIFPRNAMGWYRQAPGKERELVAVISRSGTSTYYADSVKGRFTISRDNAKNTVYLQMNSLKPEDTAVYYCAAAPSQVYRARFYYWGQGTQVTVSS”, “high polyreactivity”. As for “QVQLVESGGGLVQAGGSLRLSCAASGLIFPSYTMGWYRQAPGKDRELVAAITFSGDSTNYADSVKGRFTISRDNAKNTVYLQMNSLKPEDTAVYNCAASQVSDTTRFGYWGQGTQVTVSS”, the “polyreactivity (PSR sort gate)” value is on record as “low polyreactivity”. In the case of “QVQLVESGGGLVQAGGSLRLSCAASGLIFPTNAMGWYRQAPGKERELVAAISSVGSTYYADSVKGRFTISRDNAKNTVYLQMNSLKPEDTAVYYCAADWTLDPSYGYYADDYWGQGTQVTVSS”, the “polyreactivity (PSR sort gate)” value is on record as “low polyreactivity”. For the sequence “QVQLVESGGGLVQAGGSLRLSCAASGLIFPVYDMGWYRQAPGKERELVAAITRSGDSTYYADSVKGRFTISRDNAKNTVYLQMNSLKPEDTAVYYCAAQPGTASYAGDGDSWGQGTQVTVSS”, the “polyreactivity (PSR sort gate)” value is “low polyreactivity”. On to “QVQLVESGGGLVQAGGSLRLSCAASGLIFPYYTMGWYRQAPGKEGELVAVINRGGSTSYADSVKGRFTISRDNAKNTFYLQMNSLKPEDTAVYYCAARKWRYYSHVIYDYWGQGTQVTVSS”, for which the “polyreactivity (PSR sort gate)” value was “high polyreactivity”. For the sequence “QVQLVESGGGLVQAGGSLRLSCAASGLIFPYYVMGWYRQAPGKERELVAAISVSGGNTYYADSVKGRFTISRDNAKNTVYLQMNSLKPEDTAVYYCAADHYRGSYDYWGQGTQVTVSS”, the “polyreactivity (PSR sort gate)” value is listed as “high polyreactivity”. Take “QVQLVESGGGLVQAGGSLRLSCAASGLIFPYYVMGWYRQAPGKERELVAAITWSGGRTYYADSVKGRFTISRDNAKNTVSLQMNSLKPEDTAVYYCAATYWTIDYWGQGTQVTVSS”: the “polyreactivity (PSR sort gate)” value is listed as “low polyreactivity”.

In the case of “QVQLVESGGGLVQAGGSLRLSCAASGLIFRGNDMGWYRQAPGKERELVAGINSSGSTNYADSVKGRFTISRDNAKNTVYLHMNSLKPEDTAVYYCAARAIVSFDYCGQGTQVTVSS”, the “polyreactivity (PSR sort gate)” value is on record as “low polyreactivity”. Take “QVQLVESGGGLVQAGGSLRLSCAASGLIFRGYAMGWYIQAPGKERELVAAISKSGGSTYYADSVKGRFTISRDNAKNTVYLQMNSLKPEDTAVYYCNTDYDWKYFLSSQYDYWGQGTQVTVSS”: the “polyreactivity (PSR sort gate)” value is given as “high polyreactivity”. As to “QVQLVESGGGLVQAGGSLRLSCAASGLIFRGYAMGWYRQAPGKERELVAAISSIAGSTYYADSVKGRFTISRDNAKNTVYLQMNSLKPEDTAVYYCAARSRWTFRDYYYWGQGTQVTVSS”, the “polyreactivity (PSR sort gate)” value was “high polyreactivity”. For “QVQLVESGGGLVQAGGSLRLSCAASGLIFRHYAMGWYRQAPGKERELVAAIDYSGGSTYYADSVKGRFTISRDNAKNSVYLQMNSLKPEDTAVYYCAADYFWLYYSEYGYWGQGTQVNVSS” the value was “low polyreactivity”; for “QVQLVESGGGLVQAGGSLRLSCAASGLIFRHYAMGWYRQAPGKERELVAAIDYSGGSTYYADSVKGRFTISRDNAKNTVYLQMNSQKPEDTAVYYCAADYFWMYYSEYGYWGQGTQVTVSS”, “low polyreactivity”. In the case of “QVQLVESGGGLVQAGGSLRLSCAASGLIFRHYVMGWYRQAPGKETELVAAITSRGGTTYYADSVKGRFTISRDNAKNTVYIQMNSLKPEDTAVYYCNAVDIYPTRYEYDYWGQGTQVTVSS”, the “polyreactivity (PSR sort gate)” value is listed as “high polyreactivity”.

For “QVQLVESGGGLVQAGGSLRLSCAASGLIFRLYAMGWYRQAPGKERELVAALSISGGSTYYADSVKGRFTLSRDNAKNTVYLQMNSLKPEDTAVYYCAARYYRGGPYYKYDYWGQGTQVTVSS”, the “polyreactivity (PSR sort gate)” value is “high polyreactivity”. “QVQLVESGGGLVQAGGSLRLSCAASGLIFRPYTMGWYRQAPGKERELVAAINFSGGNTYYADSVKGRFTISRDNAKNTVYLQMNSLKPEDTAVYYCATKSFYGYYYWPYGYWGQGTQVTVSS”: the “polyreactivity (PSR sort gate)” value was “low polyreactivity”.
